Assay results from patent US20050164945A1 (published 2005).
No end group written: not given here.

Molecular target: T1, recombinant endotheliase 1 (human, UniProt Q9UL52 192-423, limits assumed)
T1 construct: also called ET1; rET1
T1 sequence: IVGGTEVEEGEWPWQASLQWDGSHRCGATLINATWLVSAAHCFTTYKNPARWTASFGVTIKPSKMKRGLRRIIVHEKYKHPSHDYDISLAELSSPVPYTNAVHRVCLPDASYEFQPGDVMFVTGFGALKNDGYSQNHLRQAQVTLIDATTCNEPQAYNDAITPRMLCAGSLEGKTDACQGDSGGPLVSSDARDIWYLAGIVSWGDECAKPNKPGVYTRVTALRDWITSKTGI
Assay: inhibition of ET1 activity

Ki: 500 nM
Binder: AGKWHCKGYAPDCQMWGT (not fully specified (bridges); cysteine pairing not given here, synthetic peptide) [DX-1107]
